Paper PMC10874396, “Spatiotemporal and direct capturing global substrates of lysine-modifying enzymes in living cells” (Nature Communications, 2024)

Molecular target: T1, PatZ-L813o-NBAK (E. coli, UniProt P76594 1-886, L813o-NBAK, o-NBAK (o-nitrobenzyl alcohol-derived lysine, unnatural amino acid photo-crosslinker) at 813)
T1 construct: PatZ, protein lysine acetyltransferase of E. coli, amber codon at L813 read as o-NBAK; o-NBAK is a lysine derivative; also called PatZ-L813o-NBAK mutant; o-NBAK encoded enzyme; source: E. coli BL21(DE3), in living cells; also purified (Ni-NTA) for in vitro crosslinking
T1 sequence (looked up): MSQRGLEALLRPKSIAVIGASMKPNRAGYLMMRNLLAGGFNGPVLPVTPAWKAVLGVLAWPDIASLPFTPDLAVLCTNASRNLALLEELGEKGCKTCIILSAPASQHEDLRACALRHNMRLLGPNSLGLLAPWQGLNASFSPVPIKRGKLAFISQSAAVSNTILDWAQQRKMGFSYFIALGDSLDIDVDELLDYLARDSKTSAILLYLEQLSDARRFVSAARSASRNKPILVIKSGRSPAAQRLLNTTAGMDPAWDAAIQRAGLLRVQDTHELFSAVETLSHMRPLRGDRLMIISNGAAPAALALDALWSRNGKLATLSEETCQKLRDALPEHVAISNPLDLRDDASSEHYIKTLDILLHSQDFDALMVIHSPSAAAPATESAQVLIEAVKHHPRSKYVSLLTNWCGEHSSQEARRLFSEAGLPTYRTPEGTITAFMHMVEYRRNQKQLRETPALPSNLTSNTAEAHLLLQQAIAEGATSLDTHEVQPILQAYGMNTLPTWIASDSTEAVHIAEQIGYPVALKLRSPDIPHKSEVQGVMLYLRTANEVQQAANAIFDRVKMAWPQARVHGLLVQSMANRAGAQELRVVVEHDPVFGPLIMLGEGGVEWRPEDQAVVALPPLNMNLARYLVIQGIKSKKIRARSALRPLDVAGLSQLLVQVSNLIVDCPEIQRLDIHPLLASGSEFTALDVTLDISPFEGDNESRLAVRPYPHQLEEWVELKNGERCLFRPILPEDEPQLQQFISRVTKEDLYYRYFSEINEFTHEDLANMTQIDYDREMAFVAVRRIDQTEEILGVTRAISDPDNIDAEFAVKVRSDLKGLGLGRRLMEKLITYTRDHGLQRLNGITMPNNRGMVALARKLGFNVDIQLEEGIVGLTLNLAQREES
Experiment: cross-linking; in vitro: purified o-NBAK enzyme mixed with purified partner protein in PBS 150 mM NaCl pH 7.5, 365 nm UV 15 min on ice, SDS-PAGE, extra band cut, LC-MS/MS of crosslinked peptides
Settings: both partners purified

B1: DnaJ (purified recombinant) (natural protein, E. coli, UniProt P08622 1-376, looked up)
chain: MAKQDYYEILGVSKTAEEREIRKAYKRLAMKYHPDRNQGDKEAEAKFKEIKEAYEVLTDSQKRAAYDQYGHAAFEQGGMGGGGFGGGADFSDIFGDVFGDIFGGGRGRQRAARGADLRYNMELTLEEAVRGVTKEIRIPTLEECDVCHGSGAKPGTQPQTCPTCHGSGQVQMRQGFFAVQQTCPHCQGRGTLIKDPCNKCHGHGRVERSKTLSVKIPAGVDTGDRIRLAGEGEAGEHGAPAGDLYVQVQVKQHPIFEREGNNLYCEVPINFAMAALGGEIEVPTLDGRVKLKVPGETQTGKLFRMRGKGVKSVRGGAQGDLLCRVVVETPVGLNERQKQLLQELQESFGGPTGEHNSPRSKSFFDGVKKFFDDLTR
notes: DnaJ, E. coli; may be in the Supplementary Information
  binding result: binds
